Test [1] addresses membrane receptor interacting with BLV (unknown) (human). Put plainly: flow cytometry, tagged RBD on blood neutrophils of one CF patient.
The target is the same in test [2]. Put plainly: flow cytometry, tagged RBD on sputum neutrophils of one CF patient. Background: A flow cytometer gives signals particle by particle.

On to “Bovine Leukaemia Virus receptor-binding domain (BLV RBD) (from UniProt P25507 34-215)”, for which the figures for the deltaGeomean of fluorescence in test [1] and in test [2] were 0 and 140, respectively.

(Values after US20130260394A1.)
